Source: patent US7597894B2, “Compositions and methods employing alternative reading frame polypeptides for the treatment of cancer and infectious disease” (Dendreon Corporation, priority 2003, dated 2009)

B1: HER300: recombinant fusion protein with 289 amino acids of HER-2 membrane distal extracellular domain and OVA257-264; negative control (protein, listed as Homo sapiens)
chain: MRAAPLLLARAASLSLGFLFLLFFWLDRSVLAKELARGAASTQVCTGTDMKLRLPASPETHLDMLRHLYQGCQVVQGNLELTYLPTNASLSFLQDIQEVQGYVLIAHNQVRQVPLQRLRIVRGTQLFEDNYALAVLDNGDPLNNTTPVTGASPGGLRELQLRSLTEILKGGVLIQRNPQLCYQDTILWKDIFHKNNQLALTLIDTNRSRACHPCSPMCKGSRCWGESSEDCQSLTRTVCAGGCARCKGPLPTDCCHEQCAAGCTGPKHSDCLACLHFNHSGICELHCPALVTYNTDTFESMPNPEGRYTFGASCVTACPYNYLSTDVGSASIINFEKLAAPTRSPNPVTRPWKHVDAIKEALSLLNDMRALENEKNEDVDIISNEFSIQRPTCVQTRLKLYKQGLRGNLTKLNGALTMIASHYQTNCPPTPETDCEIEVTTFEDFIKNLKGFLFDIPFDCWKPVQKGAPPPPAHHHHHH
B2: HER500rGM-CSF: recombinant fusion protein of hHER-2 extracellular and intracellular domain sequences, OVA octapeptide and rat GM-CSF; positive control (protein, listed as Homo sapiens)
chain: MRAAPLLLARAASLSLGFLFLLFFWLDRSVLAKELARGAASTQVCTGTDMKLRLPASPETHLDMLRHLYQGCQVVQGNLELTYLPTNASLSFLQDIQEVQGYVLIAHNQVRQVPLQRLRIVRGTQLFEDNYALAVLDNGDPLNNTTPVTGASPGGLRELQLRSLTEILKGGVLIQRNPQLCYQDTILWKDIFHKNNQLALTLIDTNRSRACHPCSPMCKGSRCWGESSEDCQSLTRTVCAGGCARCKGPLPTDCCHEQCAAGCTGPKHSDCLACLHFNHSGICELHCPALVTYNTDTFESMPNPEGRYTFGASCVTACPYNYLSTDVGSASIINFEKLGAGGMVHHRHRSSSTRSGGGDLTLGLEPSEEEAPRSPLAPSEGAGSDVFDGDLGMGAAKGLQSLPTHDPSPLQRYSEDPTVPLPSETDGYVAPLTCSPQPEYVNQPDVRPQPPSPREGPLPAARPAGATLERAKTLSPGKNGVVKDVFAFGGAVENPEYLTPQGGAAPQPHPPPAFSPAFDNLYYWDQDPPERGAPPSTFKGTPTAENPEYLGLDVPAAAPTRSPNPVTRPWKHVDAIKEALSLLNDMRALENEKNEDVDIISNEFSIQRPTCVQTRLKLYKQGLRGNLTKLNGALTMIASHYQTNCPPTPETDCEIEVTTFEDFIKNLKGFLFDIPFDCWKPVQKGAPPPPAHHHHHH

What was measured:
[1] = test system: hHER-2/EL4 (E.HER2) tumor cells; experiment: Survival after hHER-2/EL4 (E.HER2) tumor challenge of mice pre-immunized with antigen-pulsed dendritic cells; format: in vivo, mouse; details: C57BL/6 mice pre-immunized i.p. with antigen-pulsed activated DC, challenged i.p. with hHER-2/EL4 (E.HER2) cells
Protocol: (§1) The hHER-2/E14 tumor cell line was generated by transfecting the mouse EL4 thymoma cell line (ATCC No. TIB-39, Rockville, Md.) with full-length human HER-2 cDNA cloned into the MIRB vector. The hHER-2/B16 tumor cell line was generated by transfecting the mouse B16 melanoma cell line (ATCC No. CRL-6322, Rockville, Md.) with full-length human HER-2 cDNA cloned into the pCR3.1 vector.
(§2) Enriched activated dendritic cells (DCs) were prepared as described (Laus et al., Nature Biotechnology 18:1269-1272 (2000)). Briefly, enriched preparations of activated DC were prepared by incubating female C57BL/6 spleen cells in tissue culture flasks for 2 h at 37° C., removing non-adherent cells, and subsequently culturing the remaining adherent cells for two days in the presence of 1 μM ionomycin (Sigma, St. Louis, Mo.). DC obtained in this manner were pulsed by sixteen hour co-culture with each of the indicated HER-2 ARF polypeptide pools or HER-2 fusion proteins in 1 μM ionomycin, washed two times and injected intraperitoneally (i.p.) into the C57BL/6 mice (2.5×10^5 cells per mouse). Two weeks after the last immunization, mice were challenged with a single i.p. injection of hHER-2/EL4 cells or hHER-2/B 16 cells in 0.1 ml PBS. Mice were monitored daily and their survival recorded.
The effect of pre-immunization with HER-2-ARF polypeptide-pulsed activated DC on suppression of in vivo growth of HER-2-expressing autologous tumors was evaluated in a mouse animal model system. The results of two independent experiments using hHER-2/EL4 cells are shown in FIGS. 1A and 1B, respectively. The results of two independent experiments using hHER-2/B 16 tumor cells are shown in FIGS. 2A and 2B, respectively.

[2] = test system: CD8 T cell hybridoma B6-H9.B7; experiment: T cell hybridoma assay (stimulation of CD8 T cell hybridoma B6-H9.B7 by Ag-pulsed cells); format: cell-based, mouse; details: untransfected EL-4 tumor cells pre-pulsed with the peptide as stimulators
Protocol: CD8 T cell hybridoma B6-H9.B7, specific for the protective Arf peptide 3h, was isolated from mice immunized with HER-2-derived Arf pool B peptides. FIG. 8D. This hybridoma was stimulated by untransfected EL-4 tumor cells pre-pulsed with the peptide 3h as well as an E.HER2 tumor transfectant in the absence of any externally added Arf peptide.
Arf epitope-specific MHC class I-dependent CD8^+ T cell hybridoma B6.H9-B7 was obtained by fusing thymoma cell line BWZ.36CD8 with splenocytes of mice immunized with HER-2-derived Arf pool B3 peptides. Sanderson et al., Int. Immunol. 6:369-376 (1994). The T cell hybridoma assay was performed as described previously. Karttunen et al., Proc. Natl. Acad. Sci. USA. 88:3972-3976 (1991). Briefly, 10^5 hybridoma cells were incubated in 0.2 ml micro-wells with designated washed Ag-pulsed APC. Stimulation of B6.H9-B7 was visualized after incubation with chlorophenol red B-galactoside (expressed in relative light units). FIG. 8E.

[3] = test system: hHER-2/B16 (B16.HER2) tumor cells; experiment: Survival after hHER-2/B16 tumor challenge of mice pre-immunized with antigen-pulsed dendritic cells; format: in vivo, mouse; details: C57BL/6 mice pre-immunized with antigen-pulsed DC, challenged with hHER-2/B16 cells
Protocol: as §1
as §2, with “Two weeks after the last immunization, mice were challenged with a single i.p. injection of hHER-2/EL4 cells or hHER-2/B 16 cells in 0.1 ml PBS.” left out
The effect of pre-immunization with HER-2-ARF polypeptide-pulsed activated DC on suppression of in vivo growth of HER-2-expressing autologous tumors was evaluated in a mouse animal model system. […]

[4] = test system: mPAP/B16 (B16.mPAP) tumor cells; experiment: Survival after challenge with B16 cells expressing an irrelevant antigen (mouse PAP); format: in vivo; details: C57BL/6 mice pre-immunized with antigen-pulsed DC, challenged with B16 cells expressing irrelevant antigen mouse PAP

Molecule | protection against tumor challenge / survival (prevention of in vivo tumor growth) [1] | stimulation of CD8 T cell hybridoma B6-H9.B7 [2] | protection against tumor challenge / survival [3] | protection against tumor challenge / survival [4]
RHEAAAPCQSRDPPG (Made in a lab from synthetic material) [3h] | strong protective capabilities | stimulated | – | –
VHRHRHEAAAPCQSR (Made in a lab from synthetic material) [3g] | strong protective capabilities | – | – | –
B1 | had little effect | – | – | –
B2 | prevented tumor growth | – | protection | no protection
